Source: US20130230533A1 (Regeneron, published 2013)

T1: Monomeric human CD48-mmH (human)
T1 construct: also called soluble CD48 expressed with a myc-myc-hexa-histidine C-terminal tag [mmH]
T1 chain: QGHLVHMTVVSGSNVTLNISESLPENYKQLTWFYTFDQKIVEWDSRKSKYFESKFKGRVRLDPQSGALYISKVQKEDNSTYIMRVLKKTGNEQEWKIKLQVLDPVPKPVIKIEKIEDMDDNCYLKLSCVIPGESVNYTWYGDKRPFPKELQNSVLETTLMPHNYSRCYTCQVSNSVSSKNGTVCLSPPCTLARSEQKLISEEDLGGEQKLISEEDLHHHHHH

T2: Dimeric human CD48-mFc (human)
T2 chain: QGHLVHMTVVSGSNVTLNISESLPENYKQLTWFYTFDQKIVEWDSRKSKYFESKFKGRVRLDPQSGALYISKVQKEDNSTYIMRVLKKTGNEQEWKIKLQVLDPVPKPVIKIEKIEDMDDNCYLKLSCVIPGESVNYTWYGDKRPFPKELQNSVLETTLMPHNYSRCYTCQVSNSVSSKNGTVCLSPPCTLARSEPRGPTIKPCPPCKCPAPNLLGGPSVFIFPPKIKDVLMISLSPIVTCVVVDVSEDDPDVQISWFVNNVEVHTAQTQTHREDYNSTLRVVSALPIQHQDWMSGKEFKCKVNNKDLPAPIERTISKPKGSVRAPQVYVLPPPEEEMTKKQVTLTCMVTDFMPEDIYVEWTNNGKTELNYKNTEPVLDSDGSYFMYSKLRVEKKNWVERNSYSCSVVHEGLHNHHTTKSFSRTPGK

T3: Dimeric human CD48-mFc (human)
T3 construct: the whole entry is the construct; also called hCD48-mFc
T3 chain: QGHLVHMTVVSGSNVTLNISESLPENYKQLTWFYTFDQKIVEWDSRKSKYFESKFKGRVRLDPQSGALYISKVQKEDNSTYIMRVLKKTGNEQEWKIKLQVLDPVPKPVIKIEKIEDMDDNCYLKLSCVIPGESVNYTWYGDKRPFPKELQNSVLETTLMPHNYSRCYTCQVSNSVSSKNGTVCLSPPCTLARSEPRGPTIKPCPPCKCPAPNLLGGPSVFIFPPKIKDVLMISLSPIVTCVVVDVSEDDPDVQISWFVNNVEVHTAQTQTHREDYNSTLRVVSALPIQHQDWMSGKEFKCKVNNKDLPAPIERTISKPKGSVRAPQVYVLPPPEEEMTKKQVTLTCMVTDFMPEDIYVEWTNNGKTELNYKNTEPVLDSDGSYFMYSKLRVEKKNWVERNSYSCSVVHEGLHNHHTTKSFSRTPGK

T4: Monomeric human CD48-mmH (human)
T4 chain: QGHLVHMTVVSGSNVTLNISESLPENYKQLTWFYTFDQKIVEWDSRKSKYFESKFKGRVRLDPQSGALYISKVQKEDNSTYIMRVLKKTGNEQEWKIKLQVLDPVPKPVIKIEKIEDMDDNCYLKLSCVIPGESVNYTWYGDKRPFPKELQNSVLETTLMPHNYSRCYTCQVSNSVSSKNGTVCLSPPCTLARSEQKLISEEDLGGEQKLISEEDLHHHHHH


Experiments:
Monomeric human CD48-mmH [1] = target: T1, Monomeric human CD48-mmH; test: SPR (Biacore T100), 25 C, antibody captured by anti-Fc, monomeric CD48-mmH in solution
Procedure: (§1) Measurements were conducted on a T100-2 BIACORE™ instrument (Biacore Life Sciences division of GE Healthcare, Piscataway, N.J.). Antibodies (either with mouse Fc [designated “H2M” or “H3M”] or human IgG4 Fc [designated “H4H”]) were captured through an anti-Fc chip surface, and CD48 was flowed over the surface either in a monomeric (soluble CD48 expressed with a myc-myc-hexa-histidine C-terminal tag [mmH]) or dimeric (soluble CD48 expressed with a C-terminal Fc fusion [mFc]) format.
(§2) The soluble CD48 was applied to the flow cell in separate injections at different concentrations, and kinetic association (kₐ) and dissociation (kd) rate constants were determined by fits to the kinetic binding data using Biacore software. Binding dissociation equilibrium constants and dissociation half-times were calculated from the kinetic rate constants as: KD=kd/kₐ; t_{1/2}=(ln 2/kd) (units: ka=M⁻¹*s⁻¹; kd=s⁻¹; KD=M; T½=min) (Tables 3-6).

Dimeric human CD48-mFc [2] = target: T2, Dimeric human CD48-mFc; test: SPR (Biacore T100), 25 C, antibody captured by anti-Fc, dimeric CD48-mFc in solution
Procedure: as §1, §2

Dimeric human CD48-mFc [3] = target: T3, Dimeric human CD48-mFc; test: SPR (Biacore), antibody captured by anti-Fc, CD48 in solution, 37 C
Procedure: as §1, §2

Monomeric human CD48-mmH [4] = target: T4, Monomeric human CD48-mmH; test: as above
Procedure: as §1, §2

Kd (Monomeric human CD48-mmH [1])	T½ (Monomeric human CD48-mmH [1])	koff (Monomeric human CD48-mmH [1])	kon (Monomeric human CD48-mmH [1])	Kd (Dimeric human CD48-mFc [2])	T½ (Dimeric human CD48-mFc [2])	koff (Dimeric human CD48-mFc [2])	kon (Dimeric human CD48-mFc [2])	Kd (Dimeric human CD48-mFc [3])	T½ (Dimeric human CD48-mFc [3])	koff (Dimeric human CD48-mFc [3])	kon (Dimeric human CD48-mFc [3])	Kd (Monomeric human CD48-mmH [4])	T½ (Monomeric human CD48-mmH [4])	koff (Monomeric human CD48-mmH [4])	kon (Monomeric human CD48-mmH [4])	Binder
39.1 nM	8 min	0.00146 s⁻¹	37300 M⁻¹ s⁻¹	0.841 nM	123 min	9.38e-05 s⁻¹	112000 M⁻¹ s⁻¹									H2M1710N (antibody, mouse IgG2, V domains shown, Human variable domains, mouse IgG2 Fc (prefix H2M)) VH: QVQLVQSGADMKKPGASVRVSCKASGYTFTDYFIHWVRQAPGQGPEWMGWINPDSGATNYAQQFQGRVTMTRDTSISATYMEMSRLRSDDTAVFYCARDKDGSGWYLDDWGQGTLVTVSS VL: EIVLTQSPATLSLSPGERATLSCRASQSVNIYLAWYQQKPGQAPRLLIYDASNRASGIPARFSGSGSGTDFTLTISSLEPEDFAVYYCQQRSNWPPSITFGQGTRLEIK
								0.293 nM	13 min	0.000883 s⁻¹	3.02e+06 M⁻¹ s⁻¹	13.5 nM	1 min	0.0201 s⁻¹	1.49e+06 M⁻¹ s⁻¹	H2M1763N (antibody, mouse IgG2, V domains shown, Human variable domains, mouse IgG2 Fc (H2M)) VH: QIQLVQSGAEMKRPGTSVKVSCKASGYTFTSYGINWVRQAPGQGLEWMGWISAYNGDTNYAQKLQGRVTMTTDTSTTTAYMEVRSLRSDDTAVYYCARFLTGTKDYYYGMDVWGQGTTVTVSS VL: DIQMTQSPSSLSASVGDRVTITCQASQDISNFLNWYQQKPGKAPDLLINDASILETGVPSRFSGSGSGTDFTLTINNLQPEDIATYYCQQYDNLPLTFGGGTKVEIK
8.2 nM	2 min	0.00631 s⁻¹	769000 M⁻¹ s⁻¹	0.0268 nM	211 min	5.48e-05 s⁻¹	2.05e+06 M⁻¹ s⁻¹									H4H1763N (antibody, human IgG4, V domains shown, Human IgG4 Fc (prefix H4H)) VH: QIQLVQSGAEMKRPGTSVKVSCKASGYTFTSYGINWVRQAPGQGLEWMGWISAYNGDTNYAQKLQGRVTMTTDTSTTTAYMEVRSLRSDDTAVYYCARFLTGTKDYYYGMDVWGQGTTVTVSS VL: DIQMTQSPSSLSASVGDRVTITCQASQDISNFLNWYQQKPGKAPDLLINDASILETGVPSRFSGSGSGTDFTLTINNLQPEDIATYYCQQYDNLPLTFGGGTKVEIK
11.8 nM	2 min	0.00648 s⁻¹	548000 M⁻¹ s⁻¹	0.256 nM	23 min	0.000499 s⁻¹	1.95e+06 M⁻¹ s⁻¹									H2M1763N (antibody, mouse IgG2, V domains shown, Human variable domains, mouse IgG2 Fc (prefix H2M)) VH: QIQLVQSGAEMKRPGTSVKVSCKASGYTFTSYGINWVRQAPGQGLEWMGWISAYNGDTNYAQKLQGRVTMTTDTSTTTAYMEVRSLRSDDTAVYYCARFLTGTKDYYYGMDVWGQGTTVTVSS VL: DIQMTQSPSSLSASVGDRVTITCQASQDISNFLNWYQQKPGKAPDLLINDASILETGVPSRFSGSGSGTDFTLTINNLQPEDIATYYCQQYDNLPLTFGGGTKVEIK
11.8 nM	2 min	0.00619 s⁻¹	524000 M⁻¹ s⁻¹	0.288 nM	22 min	0.00053 s⁻¹	1.84e+06 M⁻¹ s⁻¹									H2M1712N (antibody, mouse IgG2, V domains shown, Human variable domains, mouse IgG2 Fc (prefix H2M)) VH: QIQLVQSGAEMKRPGTSVKVSCKASGYTFSSYGINWVRQAPGQGLEWMGWISAYNGDTNYAQKLQGRVTMTTDTSTTTAYMEVRSLRSDDTAVYYCARFLTGTKDLYYGMDVWGQGTTVTVSS VL: DIQMTQSPSSLSASVGDRVTITCQASQDISNFLNWYQQKPGKAPDLLINDASILETGVPSRFSGSGSGTDFTLTINSLQPEDIATYYCQQYDNLPLTFGGGTKVEIK
1.35 nM	53 min	0.000217 s⁻¹	161000 M⁻¹ s⁻¹	0.0134 nM	1040 min	1.11e-05 s⁻¹	826000 M⁻¹ s⁻¹									H2M1713N (antibody, mouse IgG2, V domains shown, Human variable domains, mouse IgG2 Fc (prefix H2M)) VH: QVQLVQSGAEVKKPGASVKVSCKASGHTFTNYYIHWVRQAPGQGLEWMGITNPNDGNTRYAQKFQGRISMTWDTSTSTVFMELSSLKSEDTAVYYCAGLRYWFFDLWGRGTPVTVSS VL: DIQMTQSPSSVSASVGDRVTITCRASQDISSWLAWYQQKPGKAPNLLIFAASSLQSGVPSRFSGSGSGTDFTLTISSLQPEDFGTYYCQQTDNFPRTFGQGTKVEIN
0.893 nM	67 min	0.000174 s⁻¹	194000 M⁻¹ s⁻¹	0.0212 nM	609 min	1.9e-05 s⁻¹	894000 M⁻¹ s⁻¹									H4H1713N (antibody, human IgG4, V domains shown, Human IgG4 Fc (prefix H4H)) VH: QVQLVQSGAEVKKPGASVKVSCKASGHTFTNYYIHWVRQAPGQGLEWMGITNPNDGNTRYAQKFQGRISMTWDTSTSTVFMELSSLKSEDTAVYYCAGLRYWFFDLWGRGTPVTVSS VL: DIQMTQSPSSVSASVGDRVTITCRASQDISSWLAWYQQKPGKAPNLLIFAASSLQSGVPSRFSGSGSGTDFTLTISSLQPEDFGTYYCQQTDNFPRTFGQGTKVEIN
